In assay [1] the target is human PD-L1 protein (soluble, ELISA antigen and SPR analyte) (human) (UniProt Q9NZQ7). Description: ELISA, scFv. Set-up: unit not given here. Background: In an ELISA, binding on a coated surface is turned into a signal by an enzyme label.
Assay [2] deals with cynomolgus monkey PD-L1 protein (soluble) (cynomolgus monkey) (UniProt G7PSE7). Description: ELISA, scFv. Set-up: unit not given here.
For assay [3], the target named is mouse PD-L1 protein (soluble) (mouse) (UniProt Q9EP73). Description: ELISA, scFv. Set-up: unit not given here.
Chain of mouse PD-L1 protein (soluble) (mouse) (Q9EP73 19-238 limits assumed): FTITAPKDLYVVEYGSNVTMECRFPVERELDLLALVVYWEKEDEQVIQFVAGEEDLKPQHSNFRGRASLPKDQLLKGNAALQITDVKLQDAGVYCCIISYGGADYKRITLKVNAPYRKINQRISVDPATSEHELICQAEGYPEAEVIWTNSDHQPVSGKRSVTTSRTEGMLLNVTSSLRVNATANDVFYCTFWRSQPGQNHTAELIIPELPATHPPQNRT
The target in assay [4] is T1, human PD-L2 on the cell surface (human, UniProt Q9BQ51 20-273).
T1 construct: whole, on cells; also called cell surface human PD-L2
T1 sequence (looked up): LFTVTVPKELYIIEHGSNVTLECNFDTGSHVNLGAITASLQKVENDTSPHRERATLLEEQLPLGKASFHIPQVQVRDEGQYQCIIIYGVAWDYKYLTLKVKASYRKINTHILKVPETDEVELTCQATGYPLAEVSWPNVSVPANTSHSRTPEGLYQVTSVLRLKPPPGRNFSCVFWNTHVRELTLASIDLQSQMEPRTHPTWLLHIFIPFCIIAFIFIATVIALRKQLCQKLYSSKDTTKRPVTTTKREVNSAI
Description: FACS on PD-L2+ CHO-K1 cells, goat anti-human IgG Fc FITC (cross-family test). The procedure: Testing antibodies were diluted in wash buffer (1><PBS/1% BSA) and incubated with cells at 4° C. for 1 hour. After washing, the secondary antibody goat anti-human IgG Fc FITC (Jackson ImmunoResearch Lab) was added and incubated at 4° C. in the dark for 1 hour. The cells were then washed once and resuspended in 1><PBS/1% BSA, and analyzed by flow cytometry (BD).

In assay [5] the target is T2, cynomolgus PD-L1 on the cell surface (cynomolgus, UniProt G7PSE7 19-290).
T2 construct: also called cell surface cynomolgus PD-L1
T2 sequence (G7PSE7 entry or part of it limits assumed): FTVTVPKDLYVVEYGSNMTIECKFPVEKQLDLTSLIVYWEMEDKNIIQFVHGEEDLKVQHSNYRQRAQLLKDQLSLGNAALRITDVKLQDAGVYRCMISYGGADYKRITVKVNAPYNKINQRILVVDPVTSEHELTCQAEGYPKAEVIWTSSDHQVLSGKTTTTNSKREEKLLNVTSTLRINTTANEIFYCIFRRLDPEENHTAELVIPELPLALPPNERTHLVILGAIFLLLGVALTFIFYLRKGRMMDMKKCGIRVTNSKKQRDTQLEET
Description: FACS on cells expressing cynomolgus PD-L1, goat anti-human IgG Fc FITC. As to the method: (§1) Cross-reactivity was measured by FACS. […] Testing antibodies were diluted in wash buffer (1><PBS/1% BSA) and incubated with cells at 4° C. for 1 hour. After washing, the secondary antibody goat anti-human IgG Fc FITC (Jackson ImmunoResearch Lab) was added and incubated at 4° C. in the dark for 1 hour. The cells were then washed once and resuspended in 1><PBS/1% BSA, and analyzed by flow cytometry (BD).

Assay [6] concerns the target T3, human PD-L1 on the cell surface (CHO-K1 cells expressing human PD-L1) (human, UniProt Q9NZQ7 19-290).
T3 construct: the positions are those of the human PD-L1 alanine scan; also called cell surface human PD-L1; B7-H1
Description: FACS competition: antibody against mouse Fc fusion-human PD-1 binding to cells expressing human PD-L1.

Assay [7] deals with T4, mouse PD-L1 on the cell surface (mouse, UniProt Q9EP73 19-290).
T4 construct: whole, on cells; also called cell surface mouse PD-L1
T4 sequence (Q9EP73 19-290): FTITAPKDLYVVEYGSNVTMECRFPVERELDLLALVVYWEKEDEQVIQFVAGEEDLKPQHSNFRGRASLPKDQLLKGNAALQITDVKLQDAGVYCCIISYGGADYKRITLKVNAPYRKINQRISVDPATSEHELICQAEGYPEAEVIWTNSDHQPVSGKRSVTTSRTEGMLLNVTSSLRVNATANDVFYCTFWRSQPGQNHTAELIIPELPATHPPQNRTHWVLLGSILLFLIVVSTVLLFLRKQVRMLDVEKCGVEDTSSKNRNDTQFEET
Description: FACS competition: antibody against mouse Fc fusion-mouse PD-1 binding to cells expressing mouse PD-L1.

Assay [8] concerns the target T3, human PD-L1 on the cell surface (CHO-K1 …). Description: FACS epitope binning: antibody mixed with biotinylated WBP315BMK6 on CHO-K1 cells expressing human PD-L1, Streptavidin-PE. As to the method: (§2) CHO-K 1 cells expressing human PD-L1on the cell surface were incubated with the mixture of biotinylated benchmark antibodies and testing antibodies (serially diluted in wash buffer) at 4° C. for 1 hour. The cells were washed and the second antibody Streptavidin-PE were added and incubated for 30 min at 4° C. The cells were then washed once and resuspended in 1><PBS/1% BSA, and analyzed by flow cytometery.

The target is the same in assay [9]. Description: FACS on cells expressing human PD-L1, goat anti-human IgG Fc FITC. The procedure:
as §1

For assay [10], the target named is T5, human PD-L1 protein (soluble, ELISA antigen and SPR analyte) (human, UniProt Q9NZQ7 19-238).
T5 construct: biotinylated in the capture ELISA; also called PD-L1 (human)
T5 sequence (Q9NZQ7 19-238 limits assumed): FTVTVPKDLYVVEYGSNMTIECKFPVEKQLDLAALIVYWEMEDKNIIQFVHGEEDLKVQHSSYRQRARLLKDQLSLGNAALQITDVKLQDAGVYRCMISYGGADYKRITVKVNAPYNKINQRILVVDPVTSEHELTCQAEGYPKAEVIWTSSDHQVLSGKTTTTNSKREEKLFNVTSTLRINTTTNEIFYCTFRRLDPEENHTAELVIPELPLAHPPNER
Description: SPR, antibody captured on Protein A, PD-L1 as analyte. The procedure:
(§3) Antibodies were characterized for affinity and binding kinetics to PD-L1by SPR assay using ProteOn XPR36 (Bio-Rad). Protein A protein (Sigma) was immobilized to a GLM sensor chip (Bio-Rad) through amine coupling. Purified antibodies were flowed over the sensor chip and captured by the Protein A. The chip was rotated 90° and washed with running buffer (1 ><PBS/0.05% Tween20, Bio-Rad) until the baseline was stable. Five concentrations of human or cynomolgus monkey PD-L1and running buffer were flowed through the sensor chip at a flow rate of 100 μL/min for an association phase of 240s, followed by 600s dissociation. […] The chip was regenerated with pH 1.5 H₃PO₄ after each run. The association and dissociation curve was fit by 1:1 Langmuir binding model using ProteOn software.

Assay [11] deals with T6, cynomolgus monkey PD-L1 protein (soluble) (cynomolgus monkey, UniProt G7PSE7 19-238).
T6 construct: also called cyno PD-L1
T6 sequence (G7PSE7 entry or part of it limits assumed): as the sequence (Q9NZQ7 19-238 limits assumed) above, with A33T, A34S, S62N, R68Q, Q82R, F173L, T185A, T192I, H215L counted along it
Described as above. The procedure:
as §3

Assay [12] has as its target T4, mouse PD-L1 on the cell surface. Description: FACS on cells expressing mouse PD-L1, goat anti-human IgG Fc FITC. As to the method: as §1
Assay [13] addresses T3, human PD-L1 on the cell surface (CHO-K1 …). Description: FACS epitope binning: antibody mixed with biotinylated WBP315BMK1 on CHO-K1 cells expressing human PD-L1, Streptavidin-PE. As to the method:
as §2

Assay [14] has as its target T5, human PD-L1 protein (soluble, ELISA …). Description: SPR. (Surface plasmon resonance follows binding to a sensor surface in real time, without labels.)

T3 sequence (Q9NZQ7 19-290 limits assumed): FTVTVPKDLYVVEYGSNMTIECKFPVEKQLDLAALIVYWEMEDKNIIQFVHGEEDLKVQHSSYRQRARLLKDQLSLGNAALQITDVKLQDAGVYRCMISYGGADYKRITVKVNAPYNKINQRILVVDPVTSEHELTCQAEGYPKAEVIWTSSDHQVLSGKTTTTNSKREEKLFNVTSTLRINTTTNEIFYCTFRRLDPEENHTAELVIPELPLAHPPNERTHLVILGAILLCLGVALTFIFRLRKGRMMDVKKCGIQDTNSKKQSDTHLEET
Chain of cynomolgus monkey PD-L1 protein (soluble) (cynomolgus monkey) (G7PSE7 entry or part of it limits assumed): as the sequence (Q9NZQ7 19-238 limits assumed) above, with A33T, A34S, S62N, R68Q, Q82R, F173L, T185A, T192I, H215L counted along it
Chain of human PD-L1 protein (soluble, ELISA antigen and SPR analyte) (human) (Q9NZQ7 19-238 limits assumed): as the sequence (Q9NZQ7 19-238 limits assumed) above

B1: W3152-r11.135.5-zAb17-m6 (scFv) (scFv, part only; not given: linker, domain order, tag, V domains shown, not shown: another chain or arm of the molecule; small tags and cut ends)
VH: QVQLQESGPGLVKPSETLSLTCTVSGFSLTENSVSWIRQPPGKGLEWIGAVWSSGSTDYNSALKSRVTISRDTSKNQFSLKLSSVTAADTAVYYCTRSTYSNDFYYYFDYWGQGTMVTVSS
VL: SYELTQPPSVSVSPGQTASITCSGSELPKRYAYWYQQKPGQSIVRVIYKDSERPSGISERFSGSSSGNTATLTISGTQAMDEADYYCSSTYGDRKLPIFGGGTKLTVL
Regarding B1, the Bmax was determined as 3.22 in [1], 2.4 in assay [2] and 3.46 in [3].

B2: W3152-r11.135.5-zAb17-m6-uIgG4L (antibody, V domains shown)
VH: B1 VH
VL: SYELTQPPSVSVSPGQTASITCSGSELPKRYAYWYQQKPGQSIVRVIYKDSERPSGISERFSGSSSGNTATLTISGTQAMDEADYYCSSTYGDRKLPIFGGGTKLTVLG
notes: also called W3152-r11.135.5-zAb17-m6-IgG4L
Consider B2, for which the binding result in assay [4] is “no binding (tested: concentration not shown)”. Further, the “EC50 (read off the curve)” value in assay [5] is about 1 nM; in assay [9], about 0.2 nM; in assay [12] it was about 2 nM. The “IC50 (read off the curve)” value is about 0.1 nM in assay [6], about 2 nM in assay [7], about 2 nM in assay [8] and about 0.6 nM in [13]. Further, the Kd in [10] amounted to 0.514 nM; in assay [11], 0.403 nM. Besides, the figures for the koff in assay [10], in assay [11] and in assay [14] were 0.00145 s⁻¹, 0.00101 s⁻¹ and 0.00103 s⁻¹, respectively. For the same molecule, the kon in assay [10] is 2.81e+06 M⁻¹ s⁻¹; in [11], 2.52e+06 M⁻¹ s⁻¹.

A word on the EC50 (read off the curve): it is the concentration needed to bring the measured effect to its halfway point. The term Kd denotes the free concentration of one partner at which half of the binding sites on the other are occupied at equilibrium, for simple one-to-one binding. For orientation: koff means a measure of how fast the partners let go of each other. In general, kon refers to the second-order rate constant of association.

(Values after patent publication US20220332827A1 (WUXI BIOLOGICS IRELAND, published 2022).)
